The values below come from article PMC9637814, “Aurora A–mediated pyruvate kinase M2 phosphorylation promotes biosynthesis with glycolytic metabolites and tumor cell cycle progression” (The Journal of Biological Chemistry, 2022).

In one series the target is T1, His-PKM2 (human, UniProt P14618 1-531).
T1 construct: full-length PKM2 cloned into the EcoRI/BamHI sites of pET-22b; also called His-tagged PKM2; His-PKM2 WT; source: E. coli, purified (nickel column)
The series is described as follows: pull-down; GST-tagged protein on resin incubated with purified His-PKM2 for 2 h at 4 °C, eluted with 10 mM GSH in 50 mM Tris pH 8.0, immunoblot. The following applies: both partners purified. On the technique in general: Immunoblotting shows a protein as a band on a membrane.

Series [1] deals with the molecule itself. Put plainly: SEC-MALS; 1 mg/ml protein in 150 mM NaCl, 20 mM Tris pH 7.5; Superdex 200 Increase, 0.3 ml/min; tetramer and monomer. For orientation: In gel filtration, larger molecules generally elute earlier.
Series [2] concerns the molecule itself. The series is described as follows: cross-linking; Flag-PKM2 purified on Flag beads from H1299 extracts, DSS crosslinking (1.5 mM, room temperature, 30 min), immunoblot.

T1 sequence (P14618 whole entry): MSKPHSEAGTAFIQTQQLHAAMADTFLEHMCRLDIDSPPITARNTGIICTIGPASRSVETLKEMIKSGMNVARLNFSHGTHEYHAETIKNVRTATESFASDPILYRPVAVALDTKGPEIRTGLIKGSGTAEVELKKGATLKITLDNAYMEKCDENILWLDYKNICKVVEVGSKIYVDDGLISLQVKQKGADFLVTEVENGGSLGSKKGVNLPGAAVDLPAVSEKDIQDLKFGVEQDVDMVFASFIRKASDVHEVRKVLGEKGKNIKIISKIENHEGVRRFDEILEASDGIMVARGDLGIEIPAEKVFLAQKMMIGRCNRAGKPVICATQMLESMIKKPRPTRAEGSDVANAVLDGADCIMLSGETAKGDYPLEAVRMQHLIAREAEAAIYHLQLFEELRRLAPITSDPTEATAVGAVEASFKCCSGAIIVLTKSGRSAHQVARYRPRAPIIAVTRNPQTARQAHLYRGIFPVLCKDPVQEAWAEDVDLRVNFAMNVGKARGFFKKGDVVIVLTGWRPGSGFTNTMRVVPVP

B1: GST-Aurora A (natural protein, human, UniProt O14965 1-403, looked up)
chain: MDRSKENCISGPVKATAPVGGPKRVLVTQQFPCQNPLPVNSGQAQRVLCPSNSSQRIPLQAQKLVSSHKPVQNQKQKQLQATSVPHPVSRPLNNTQKSKQPLPSAPENNPEEELASKQKNEESKKRQWALEDFEIGRPLGKGKFGNVYLAREKQSKFILALKVLFKAQLEKAGVEHQLRREVEIQSHLRHPNILRLYGYFHDATRVYLILEYAPLGTVYRELQKLSKFDEQRTATYITELANALSYCHSKRVIHRDIKPENLLLGSAGELKIADFGWSVHAPSSRRTTLCGTLDYLPPEMIEGRMHDEKVDLWSLGVLCYEFLVGKPPFEANTYQETYKRISRVEFTFPDFVTEGARDLISRLLKHNPSQRPMLREVLEHPWITANSSKPSNCQNKESASKQS
notes: full-length Aurora A cloned into the BamH/XhoI sites of p-GEX-5X-3
Take B1: the binding result with His-PKM2 is given as “binds”.

B2: His-PKM2 T45A mutant (natural protein)
chain: not shown
notes: Monomer and tetramer are both spoken of; source: E. coli, purified
What is called stoichiometry N is a count of units in the complex or per binding partner. Regarding B2, the “stoichiometry N” value in series [1] stood at 4.

B3: shRNA-resistant Flag-PKM2 T45A (natural protein)
chain: not shown
notes: Flag-tagged human PKM2 T45A with two silent nucleotide substitutions in the shRNA-targeted region, in the pGIPZ system; Monomer and tetramer are both spoken of; 4 copies is the tetramer seen by cross-linking; also called PKM2 T45A mutant; source: H1299 with endogenous PKM2 knocked down, retroviral expression, purified on Flag beads
Turning to B3, the “stoichiometry N” value in series [2] came out at 4.
